Reference: US20240317851A1 (LANOVA MEDICINES, published 2024)

T1: human Claudin 3 (human, UniProt O15551 1-220)
T1 construct: whole, on cells; also called CLDN3
T1 sequence (looked up): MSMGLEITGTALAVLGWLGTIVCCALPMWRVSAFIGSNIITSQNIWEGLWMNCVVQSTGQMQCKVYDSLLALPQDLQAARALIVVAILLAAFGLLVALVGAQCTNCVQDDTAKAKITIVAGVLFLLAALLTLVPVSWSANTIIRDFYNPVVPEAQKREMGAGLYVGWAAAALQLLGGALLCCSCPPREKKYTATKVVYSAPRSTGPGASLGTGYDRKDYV

T2: human Claudin 9 (human, UniProt O95484 1-217)
T2 construct: whole, on cells; also called CLDN9; CLND9
T2 sequence (looked up): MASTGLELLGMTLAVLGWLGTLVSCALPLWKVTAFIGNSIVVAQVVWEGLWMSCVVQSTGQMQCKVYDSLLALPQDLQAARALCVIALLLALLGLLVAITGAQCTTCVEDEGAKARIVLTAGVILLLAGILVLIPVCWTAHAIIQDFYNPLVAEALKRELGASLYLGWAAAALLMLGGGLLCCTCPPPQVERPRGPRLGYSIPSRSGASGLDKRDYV

T3: human Claudin 6 (human, UniProt P56747 1-220)
T3 construct: whole, on cells; also called CLDN6
T3 sequence (looked up): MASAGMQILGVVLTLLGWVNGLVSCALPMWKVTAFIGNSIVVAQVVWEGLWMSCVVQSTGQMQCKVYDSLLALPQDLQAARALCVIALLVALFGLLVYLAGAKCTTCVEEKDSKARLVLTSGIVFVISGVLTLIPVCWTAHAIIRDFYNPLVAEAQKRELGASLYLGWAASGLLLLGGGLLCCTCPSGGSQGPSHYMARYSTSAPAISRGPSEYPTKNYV


Tests used:
human Claudin 3 [1] = target: T1, human Claudin 3; assay: flow cytometry, CHOK1/H_CLDN3 cells
Protocol: (§1) In this example, cell-based binding of hu Abs on human CLDN3 expressing cells were assessed using flow cytometry.
(§2) Briefly, the CHOK1/H_CLDN3 cells were incubated with hu-Abs (from 100 nM, 6 folds dilution, 8 points). After incubation at 4° C. for 60 minutes. Cells were pelleted and washed twice with 2% FBS/PBS buffer, and stained with fluorescent conjugated secondary antibody at 4° C. for 30 minutes. After that the cells were washed twice and resuspended in 80 μL of 2% FBS/PBS buffer. Fluorescent signal of binding was detected using Agilent. The EC50 was calculated using the GraphPad software.

human Claudin 9 [2] = target: T2, human Claudin 9; assay: flow cytometry, HEK293/H_CLDN9 cells
Protocol: In this example, cell-based binding of z5 toward human CLDN9 engineering expressing cells were assessed using flow cytometry.
as §2, with “2 cell lines” for “the CHOK1/H_CLDN3 cells”, “antibodies” for “hu-Abs”, “points)” for “points). After incubation”

human Claudin 3 [3] = target: T1, human Claudin 3; assay: flow cytometry, CHOK1/H_CLDN3 cells, Ab titrated from 100 nM
Protocol: as §1, §2

human Claudin 6 [4] = target: T3, human Claudin 6; assay: flow cytometry, HEK293/H_CLDN6 cells, Ab titrated from 100 nM
Protocol: In this example, cell-based binding of humanized antibodies (hu Abs) on human CLDN6 expressing cells were assessed using flow cytometry.
as §2, with “HEK293/H_CLDN6” for “CHOK1/H_CLDN3”

human Claudin 9 [5] = target: T2, human Claudin 9; assay: flow cytometry, HEK293/H_CLDN9 cells, Ab titrated from 100 nM
Protocol: In this example, cell-based binding of hu Abs on human CLDN9 expressing cells were assessed using flow cytometry.
as §2, with “HEK293/H_CLDN9” for “CHOK1/H_CLDN3”, “software (LaJolla, CA).” for “software.”

human Claudin 6 [6] = target: T3, human Claudin 6; assay: cell-based or functional assay

Binder | binding result (human Claudin 3 [1]) | binding result (human Claudin 9 [2]) | Top MFI (human Claudin 3 [3]) | Top MFI (human Claudin 6 [4]) | Top MFI (human Claudin 9 [5]) | Min cell viability, OV90 (CLDN6 low) (human Claudin 6 [6]) [%] | Min cell viability, OVCAR-3 (CLDN6 mid) (human Claudin 6 [6]) [%] | Min cell viability, PA-1 (CLDN6 high) (human Claudin 6 [6]) [%]
97-C10E1-2-P1.z3 (antibody, V domains shown) VH: QVQLVQSGAEVKKPGASVKVSCKASGYAFTGYTMNWVRQAPGQGLEWIGLSNPYNAGTIYNQKFKGRVTMTVDKSTSTVYMELSSLRSEDTAVYYCARNYYYGSSYAYYYAMDYWGQGTTVTVSS VL: DAQMTQSPSSLSASVGDRVTITCRSSTGAVTTSNYANWVQQKPGKAPKLLIGGTNNRAPGVPSRFSGSGSGTDATLTISSLQPEDFATYYCALWYSNHWVFGGGTKVEIK | no binding (tested: 100 nM (highest concentration tested)) | no binding (tested: 100 nM (highest concentration tested)) | 133 | 27400 | 594 | – | – | –
z5-DXD (antibody, V domains shown, DXD conjugated to the antibody; residues and drug load not stated) VH: QVQLVQSGAEVKKPGASVKVSCKASGYAFTGYTMNWVRQAPGQGLEWIGLSNPYNAGTIYNQKFKGRVTMTVDKSTSTVYMELSSLRSEDTAVYYCARNYYYGSSYAYYYAMDYWGQGTTVTVSS VL: DIVVTQSPSSLSTSVGDRVTITCRSSTGAVTTSNYANWVQEKPGKAFKGLIGGTNNRAPGVPARFSGSLSGDDAALTISSAQPEDFATYFCALWYSNHWVFGGGTKVEIK | – | – | – | – | – | 90.5 | 24.5 | 14.1
z5-LM-D01 (antibody, V domains shown, LM-D01 conjugated to the antibody (structure only as a drawing); residues and drug load not stated) VH: QVQLVQSGAEVKKPGASVKVSCKASGYAFTGYTMNWVRQAPGQGLEWIGLSNPYNAGTIYNQKFKGRVTMTVDKSTSTVYMELSSLRSEDTAVYYCARNYYYGSSYAYYYAMDYWGQGTTVTVSS VL: DIVVTQSPSSLSTSVGDRVTITCRSSTGAVTTSNYANWVQEKPGKAFKGLIGGTNNRAPGVPARFSGSLSGDDAALTISSAQPEDFATYFCALWYSNHWVFGGGTKVEIK | – | – | – | – | – | 87.9 | 0.2 | 7.75
97-C10E1-2-P1.z6 (antibody, V domains shown) VH: QVQLQQSGAEVKKPGASVKVSCKASGYAFTGYTMNWVRQAPGQNLEWIGLSNPYNAGTIYNQKFKGRVTLTVDKSTSTVYMELLSLRSEDTAVYYCARNYYYGSSYAYYYAMDYWGQGTTVTVSS VL: EAVMTQSPATLSVSPGERATLSCRSSTGAVTTSNYANWVQQKPGQAPRLLIGGTNNRAPGIPARFSGSGSGDEATLTISSLQSEDFAVYFCALWYSNHWVFGGGTKVEIK | no binding (tested: 100 nM (highest concentration tested)) | no binding (tested: 100 nM (highest concentration tested)) | 139 | 32200 | 417 | – | – | –
z5-LM-D03 (antibody, V domains shown, LM-D03 conjugated to the antibody (structure only as a drawing); residues and drug load not stated) VH: QVQLVQSGAEVKKPGASVKVSCKASGYAFTGYTMNWVRQAPGQGLEWIGLSNPYNAGTIYNQKFKGRVTMTVDKSTSTVYMELSSLRSEDTAVYYCARNYYYGSSYAYYYAMDYWGQGTTVTVSS VL: DIVVTQSPSSLSTSVGDRVTITCRSSTGAVTTSNYANWVQEKPGKAFKGLIGGTNNRAPGVPARFSGSLSGDDAALTISSAQPEDFATYFCALWYSNHWVFGGGTKVEIK | – | – | – | – | – | 30.4 | 20.3 | 12.1
97-C10E1-2-P1.z5 (antibody, V domains shown, also called candidate antibody) VH: QVQLVQSGAEVKKPGASVKVSCKASGYAFTGYTMNWVRQAPGQGLEWIGLSNPYNAGTIYNQKFKGRVTMTVDKSTSTVYMELSSLRSEDTAVYYCARNYYYGSSYAYYYAMDYWGQGTTVTVSS VL: DIVVTQSPSSLSTSVGDRVTITCRSSTGAVTTSNYANWVQEKPGKAFKGLIGGTNNRAPGVPARFSGSLSGDDAALTISSAQPEDFATYFCALWYSNHWVFGGGTKVEIK | no binding (tested: 100 nM (highest concentration tested)) | – | 254 | – | 1560 | – | – | –
97-C10E1-2-P1.z15 (antibody, V domains shown) VH: QVQLQQSGAEVKKPGASMKISCKASGYAFTGYTMNWVRQAPGQNLEWIGLSNPYNAGTIYNQKFKGRATLTVDKSTSTAYMELLSLRSEDTAVYYCARNYYYGSSYAYYYAMDYWGQGTTVTVSS VL: DIVVTQSPSSLSTSVGDRVTITCRSSTGAVTTSNYANWVQEKPGKAFKGLIGGTNNRAPGVPARFSGSLSGDDAALTISSAQPEDFATYFCALWYSNHWVFGGGTKVEIK | no binding (tested: 100 nM (highest concentration tested)) | no binding (tested: 100 nM (highest concentration tested)) | 138 | 128000 | 186 | – | – | –
97-C10E1-2-P1.z8 (antibody, V domains shown) VH: QVQLQQSGAEVKKPGASVKVSCKASGYAFTGYTMNWVRQAPGQNLEWIGLSNPYNAGTIYNQKFKGRVTLTVDKSTSTVYMELLSLRSEDTAVYYCARNYYYGSSYAYYYAMDYWGQGTTVTVSS VL: DAQMTQSPSSLSASVGDRVTITCRSSTGAVTTSNYANWVQQKPGKAPKLLIGGTNNRAPGVPSRFSGSGSGTDATLTISSLQPEDFATYYCALWYSNHWVFGGGTKVEIK | no binding (tested: 100 nM (highest concentration tested)) | no binding (tested: 100 nM (highest concentration tested)) | 137 | 16300 | 542 | – | – | –
97-C10E1-2-P1.z2 (antibody, V domains shown) VH: QVQLVQSGAEVKKPGASVKVSCKASGYAFTGYTMNWVRQAPGQGLEWIGLSNPYNAGTIYNQKFKGRVTMTVDKSTSTVYMELSSLRSEDTAVYYCARNYYYGSSYAYYYAMDYWGQGTTVTVSS VL: EAVVTQSPATLSVSPGERATLSCRSSTGAVTTSNYANWVQEKPGQAFRGLIGGTNNRAPGIPARFSGSLSGDEATLTISSLQSEDFAVYFCALWYSNHWVFGGGTKVEIK | no binding (tested: 100 nM (highest concentration tested)) | – | 247 | 207000 | 2520 | – | – | –
97-C10E1-2-P1.z13 (antibody, V domains shown) VH: QVQLQQSGAEVKKPGASMKISCKASGYAFTGYTMNWVRQAPGQNLEWIGLSNPYNAGTIYNQKFKGRATLTVDKSTSTAYMELLSLRSEDTAVYYCARNYYYGSSYAYYYAMDYWGQGTTVTVSS VL: DAQMTQSPSSLSASVGDRVTITCRSSTGAVTTSNYANWVQQKPGKAPKLLIGGTNNRAPGVPSRFSGSGSGTDATLTISSLQPEDFATYYCALWYSNHWVFGGGTKVEIK | no binding (tested: 100 nM (highest concentration tested)) | no binding (tested: 100 nM (highest concentration tested)) | 131 | 15500 | 315 | – | – | –
97-C10E1-2-P1.z10 (antibody, V domains shown) VH: QVQLQQSGAEVKKPGASVKVSCKASGYAFTGYTMNWVRQAPGQNLEWIGLSNPYNAGTIYNQKFKGRVTLTVDKSTSTVYMELLSLRSEDTAVYYCARNYYYGSSYAYYYAMDYWGQGTTVTVSS VL: DIVVTQSPSSLSTSVGDRVTITCRSSTGAVTTSNYANWVQEKPGKAFKGLIGGTNNRAPGVPARFSGSLSGDDAALTISSAQPEDFATYFCALWYSNHWVFGGGTKVEIK | no binding (tested: 100 nM (highest concentration tested)) | no binding (tested: 100 nM (highest concentration tested)) | 160 | 121000 | 258 | – | – | –
